Where “and” joins values, the source holds several entries; their conditions need not be identical. Identical values can stand only once.
Columns and labels:
[1] = test system: transplanted kidney grafts; assay: Allograft biopsies scored by Chronic Allograft Damage Index (CADI); assay type: in vivo, human
Text: The quality of the graft was estimated using the Chronic Allograph Damage Index (CADI) (Isoniemi et al. 1992 and 1994), where scores of ≤1 reflects normal renal histology and higher scores correlate with poor long-term outcome (Hayry et al. 2004, Yilmaz et al. 2007, Yilmaz et al. 2003). Pristine renal histology was found in 3 of 5 patients on iscalimab (60%) and in none of the 7 treated with tacrolimus (0%). The average CADI was 1.60±0.60 for CFZ533 (n=5) vs. 5.14±0.80 for tacrolimus (n=7), (mean±SEM, p<0.01 using Student t)
A PoC Study in de Novo Renal Transplantation (CCFZ533X2101/NCT02217410) using CFZ533 was performed. […] Allograft biopsies were performed on a subset of study patients. A pathologist, blinded to therapy, reviewed and scored all biopsy slides using the established Banff criteria and calculated the chronic allograft damage index (CADI, Nickerson P et al., Legendre C et al., Seron D et al.,). A CADI of 1 or less was considered as ‘normal renal histology’. Two patients were excluded from the analysis, since they switched therapy after only 2 months. […] The average CADI at final biopsy was 1.6±0.6 for CFZ533 and 5.1±0.8 for tacrolimus, p<0.01.

[2] = Dose-range finding embryo-fetal development study; assay type: in vivo; details: rabbits
Text: Full guideline-conform reproductive toxicity studies have not been conducted thus far. However, a dose-range finding, embryo-fetal development (EFD) study in rabbits has been conducted in order to confirm the rabbit as relevant reproductive toxicology species.

platelet aggregation = assay: Platelet function and blood hemostasis; assay type: cell-based
[3] = test system: T cell-dependent antibody responses (TDAR); assay: Recall T cell-dependent antibody response to KLH; assay type: in vivo, rhesus monkeys; details: at second KLH immunization, single 10 mg/kg i.v.
Method: Monkeys were immunized with KLH three times (the first was about 3 weeks prior to dosing, the second was 2 weeks after mAb1 administration, and the third was after complete wash-out of mAb1). […] Once mAb1 was cleared, all animals mounted a full memory antibody response to the third KLH.
In the PK study, CFZ533 was administered to three animals at calculated single doses of 16.2 (5532), 18.5 (5531) and 20 (5530) mg/kg. Blood was sampled for analyses of CFZ533 serum concentrations, numbers of peripheral T and B lymphocytes, and CD40 occupancy on peripheral B cells by CFZ533. For recall TDAR experiments, animals were immunized with keyhole limpet hemocyanin (KLH) in Alum on study days 8 (priming) and 43 (recall; during CFZ533 treatment) respectively. Serum was sampled one day before and 7, 14 and 21 days after priming and recall immunizations. KLH specific IgM/IgG titers were determined with sandwich ELISA using cynomolgus monkey anti-KLH IgM/IgG reference serum as standard. PK assessment was performed as described above. See supplementary material for additional details on the PK and TDAR experiments.
Arrows below the x-axis highlight primary and secondary KLH immunizations. The timing of a single dose of 10 mg/kg CFZ533 is shown above. The asterisks indicate time points at which anti-KLH IgG and/or CFZ533 levels were measured. FIG. 10B. […]

CD20pos B cells = assay: In vitro B cell depletion in human whole blood; assay type: cell-based; details: 72 hours; Rituximab 50 μg/ml, CFZ533 dose titration
Method: See supplementary material for detailed methods. Briefly, the ability of CFZ533 to mediated depletion of CD20^pos B cells was monitored in human whole blood over a period of three days in comparison to the B cell depleting antibody Rituximab. For CDC, CFZ533 or Rituximab were incubated with RAJI B cells in the presence or absence of rabbit complement and cell lysis was assessed by luminescence.
B cells numbers were determined based on CD45pos and CD19pos events falling within lymphocyte FSC (forward-scattered light)/SSC (side-scattered light) gate. Results for individual antibody concentrations were calculated as percent remaining B cells with reference to untreated samples and graphed as a function of log-transformed antibody concentration (adjusted to 100% and shown as a dotted line). Data represent the mean and SD of eight independent donors. […] Concentration dependent killing of the Raji cells was analyzed after 2 hours, where the viability of the cells was measured by determination of the ATP concentration in each well using luciferase. Results are presented as isotype-control normalized relative luciferase units (RLU) as a function of log-transformed antibody concentration.

[4] = 26-week chronic toxicity study
recombinant human CD40 = recombinant human CD40 (Homo sapiens, UniProt P25942); assay: Surface plasmon resonance analysis of affinity for CD40; assay type: binding
Method: The binding analyses of recombinant CFZ533 were performed at 25° C. with HBS−EP+ as running buffer. A typical binding analysis cycle consisted of three steps: (i) capture of the antibody via ProteinA immobilized on the chip surface, (ii) binding of CD40 antigen to the captured anti-CD40 antibody, and (iii) regeneration of the ProteinA surface. To determine the kinetic rate constants of the antigen-antibody binding interactions, binding data were processed, double referenced with responses from blank injections. The binding curves were fitted locally using the 1:1 interaction model of the Biacore T100 Evaluation software to determine kinetic rate constants. The value for the equilibrium dissociation constant (KD) was calculated as the ratio of the rate constants kd/ka. All binding measurements were performed in two independent experiments.

[5] = 13-week GLP toxicity study

recombinant human CD40, sequence (P25942 21-277): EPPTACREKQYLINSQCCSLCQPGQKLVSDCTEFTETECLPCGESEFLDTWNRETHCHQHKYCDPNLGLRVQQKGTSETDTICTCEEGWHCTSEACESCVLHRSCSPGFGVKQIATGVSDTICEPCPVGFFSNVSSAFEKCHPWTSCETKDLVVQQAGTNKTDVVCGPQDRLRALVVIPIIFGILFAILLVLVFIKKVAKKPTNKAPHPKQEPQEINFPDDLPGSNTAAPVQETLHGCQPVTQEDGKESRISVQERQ

## CFZ533: human anti-CD40 IgG1 monoclonal antibody with Fc-silencing N297A mutation; heavy chain SEQ ID NO: 9, light chain SEQ ID NO: 10
[1]; final biopsy
  average CADI (mean±SEM): 1.6±0.6
[1]; treated for up to 25 months
  patients with normal (pristine) renal histology, CADI of 1 or less: 60%
[2]
  Effects on embryo-fetal development: No effects on embryo-fetal development
Platelet aggregation
  Platelet aggregation responses: does not induce platelet aggregation responses
[3]; 10 mg/kg
  CFZ533 concentration required for complete suppression of recall TDAR: > 40 µg/mL and 30 to 40 µg/mL
[3]; listed as mAb1, 10 mg/kg
  CFZ533 concentration required for complete suppression of recall TDAR: > 40 µg/mL
CD20pos B cells
  B cells eliminated in human whole blood: failed to mediate any cell depletion
[4]; 1 mg/kg/week subcutaneously, 26 weeks
  serum concentration with incomplete or no suppression of GCs: below 20 μg/mL
[4]; 26-week, cynomolgus monkeys
  NOAEL: 150 mg/kg
[4]; proposed intravenous regimen
  Cmax,ss at NOAEL versus expected human Cmax: 24 fold
Recombinant human CD40; SPR, 25° C.
  ka [1/Ms]: 3.13 ± 0.73 × 10^5 1/Ms
  kd [1/s]: 0.93 ± 0.14 × 10^−4 1/s
Recombinant human CD40; surface plasmon resonance
  Kd: 300 pM
[5]; weekly dosing at 10, 50 and 150 mg/kg
  Increased lymphoid cellularity: 5/22
[5]; weekly dosing, rhesus monkey
  No Observed Adverse Effect Level (NOAEL): 10 mg/kg

Reference: US11780927B2, “Anti-CD40 antibodies for use in prevention of graft rejection” (NOVARTIS AG, priority 2018, dated 2023)
